T1: CCDC112 on HCT116 tumor cells (including HCT116 cells stably overexpressing CCDC112) (human, UniProt Q8NEF3 1-446)
T1 construct: also called CCDC112 on the surface of tumor cells; HCT116-CCDC112
T1 sequence: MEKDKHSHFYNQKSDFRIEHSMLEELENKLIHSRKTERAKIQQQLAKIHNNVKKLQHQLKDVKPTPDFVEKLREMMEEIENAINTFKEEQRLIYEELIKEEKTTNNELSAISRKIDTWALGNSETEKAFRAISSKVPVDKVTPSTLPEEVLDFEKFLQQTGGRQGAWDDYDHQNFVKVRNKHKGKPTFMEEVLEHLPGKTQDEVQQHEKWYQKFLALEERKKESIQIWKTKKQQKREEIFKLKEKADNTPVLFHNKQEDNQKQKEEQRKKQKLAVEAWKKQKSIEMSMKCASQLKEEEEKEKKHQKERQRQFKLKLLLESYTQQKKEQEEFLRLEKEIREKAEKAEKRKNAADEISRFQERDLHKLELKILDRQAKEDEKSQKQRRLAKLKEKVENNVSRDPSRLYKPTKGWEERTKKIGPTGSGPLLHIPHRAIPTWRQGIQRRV

T2: CD30 extracellular region protein fragment labeled with hFc (UniProt P28908 19-385)
T2 construct: extracellular domain; Bought from ACRO Biosystems or Sino Biological; not shown: human Fc label (hFc)
T2 sequence (looked up): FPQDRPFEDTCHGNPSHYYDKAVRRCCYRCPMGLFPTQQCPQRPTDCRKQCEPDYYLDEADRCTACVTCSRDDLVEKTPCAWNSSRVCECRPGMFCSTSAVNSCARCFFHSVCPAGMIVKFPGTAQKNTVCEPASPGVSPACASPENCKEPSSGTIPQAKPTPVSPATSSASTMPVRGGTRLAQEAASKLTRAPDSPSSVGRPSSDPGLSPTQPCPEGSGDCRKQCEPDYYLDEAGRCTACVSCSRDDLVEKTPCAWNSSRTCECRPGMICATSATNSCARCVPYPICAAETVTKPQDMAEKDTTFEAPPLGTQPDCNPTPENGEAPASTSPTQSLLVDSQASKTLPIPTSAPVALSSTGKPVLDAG

B1: monoclonal antibody S-78-02 (antibody, V domains shown)
VH: QVQLQQSGPELVKPGASVKIPCKTSGYSFTDYNIDWVKQGLGESLEWIGDINPNYGGTMYNQKFKGKATLTVDKSSNTAYMELRSLTSEDTAVYYCAHDEFIYWGQGTLVTVSA
VL: DIQMNQSPSSMFASLGERVTITCRASQDINTYLSWIQRKPGKSPKTLIYRANRLVDGVPSRFSGSGSGQDYSLTISSLEYEDMGIYYCLQYDEFPHTFGGGTKLEIK
notes: Mouse hybridoma monoclonal antibody raised against CCDC112 protein and detected with an anti-mouse secondary antibody; also called CCDC112 antibody; CCDC112 monoclonal antibody
B2: CCDC112 recombinant protein (coiled-coil domain-containing protein 112) (ligand)
chain: T1 sequence
notes: also called CCDC112 protein; full-length CCDC112 protein

For assay [1], the target named is B2. The experiment in a line: bio-layer interferometry (ProbeLife Gator), antibody (200 nM) immobilized, antigen 15 nM to 1.875 nM. The procedure:
The dissociation constant (KD) of the antibody of the invention binding to human CCDC112 was determined using bio-layer interferometry on ProbeLife Gator according to conventional procedures.
(In general: BLI is a label-free optical method that tracks binding on a fibre tip over time.)

Assay [2] addresses B2. The experiment in a line: ELISA, coated full-length CCDC112 protein, antibody titrated; table gives no unit, unit from the x axis Ab(nM). (In general: In an ELISA, binding on a coated surface is turned into a signal by an enzyme label.)
Assay [3] deals with T1, CCDC112 on HCT116 tumor cells …. The experiment in a line: flow cytometry on HCT116 cells overexpressing CCDC112; table gives no unit, unit from the x axis 'Abs conc. nM'. The procedure: Further, the specific binding of the CCDC112 antibody to the antigen was verified by flow cytometry. The HCT116 cell line overexpressing CCDC112 was constructed by stable transfection of liposome, and the cells and the CCDC112 antibody were co-incubated, the unbound antibody was washed away, and then the anti-mouse secondary antibody (FITC modified) was used for flow cytometry and the percentage of cells that stain positive was analyzed.

Assay [4] concerns the target T2, CD30 extracellular region protein …. The experiment in a line: ELISA at pH 6, coated CCDC112 gradient, CD30-hFc 0.5 µg/mL; table gives no unit, unit from the x axis; target from the plot title (legend names LTBR). As for the experimental part:
(§1) Specifically, a special plate for ELISA (costar, ME, USA) was used. Firstly, different concentrations of CCDC112 recombinant proteins were dissolved in 100 μL of ELISA coating solution (Solarbio, Beijing, China) to coat the plate, and the negative control was coated with 100 μL of coating solution without protein. The plate was coated overnight at 4° C. After washing with PBST, 100 μL of 5% BSA dissolved in PBS (VWR, PA, USA) was used for blocking in the incubator at 37° C. for 90 min. […] The above-mentioned receptor protein was labeled with hFc (P-Fc) and binding was carried out in the incubator at 37° C. for 60 min. After washing with PBST, a specific anti-human Fc fragment antibody (Abcam, MA, USA) diluted in PBS was used for incubation and binding at 37° C. for 30 min. After washing with PBST, chromogenic solution (Sangon, Shanghai, China) was added at 100 μL per well for color development and reacted in an incubator for 5-30 min, and then 50 μL of stop solution (Sangon, Shanghai, China) was added, and chromogenic reading was then carried out under a microplate reader (Thermo Fisher, MA, USA) at 450 nm.

Assay [5] concerns the target T3, LTBR-hFc (LTBR extracellular region protein fragment labeled with hFc) (UniProt P36941 31-227).
T3 construct: extracellular domain; Bought from ACRO Biosystems or Sino Biological; also called lymphotoxin-beta receptor; TNFRSF3
Kind of assay: ELISA at pH 6, coated CCDC112 gradient, LTBR-hFc 0.5 µg/mL; table gives no unit, unit from the x axis; target from the plot title (legend names CD30). The procedure:
as §1

For assay [6], the target named is T2, CD30 extracellular region protein …. Kind of assay: ELISA at pH 5.5, coated CCDC112 gradient, CD30-hFc 0.5 µg/mL; table gives no unit, unit from the x axis; target from the plot title (legend names LTBR). As for the experimental part: as §1
Assay [7] has the same target. The experiment in a line: ELISA at pH 6.5, coated CCDC112 gradient, CD30-hFc 0.5 µg/mL; table gives no unit, unit from the x axis; target from the plot title (legend names LTBR). The procedure:
as §1

For assay [8], the target named is T3, LTBR-hFc (LTBR extracellular region …). The experiment in a line: ELISA at pH 5.5, coated CCDC112 gradient, LTBR-hFc 0.5 µg/mL; table gives no unit, unit from the x axis; target from the plot title (legend names CD30). The procedure:
as §1

The target is the same in assay [9]. The experiment in a line: ELISA at pH 6.5, coated CCDC112 gradient, LTBR-hFc 0.5 µg/mL; table gives no unit, unit from the x axis; target from the plot title (legend names CD30). The procedure: as §1
For assay [10] the target is unchanged. Kind of assay: ELISA at pH 7.5, coated CCDC112 gradient, LTBR-hFc 0.5 µg/mL; ambiguous fit far outside the range shown, curve nearly flat; table gives no unit, unit from the x axis; target from the plot title (legend names CD30). As for the experimental part: as §1
Assay [11] concerns the target T2, CD30 extracellular region protein …. The experiment in a line: ELISA at pH 7, coated CCDC112 gradient, CD30-hFc 0.5 µg/mL; value lies above the highest concentration shown, curve has no plateau; table gives no unit, unit from the x axis; target from the plot title (legend names LTBR). As for the experimental part:
as §1

These results are taken from patent publication US20240101663A1 (BIOTROY THERAPEUTICS, published 2024).

T3 sequence (P36941 31-227): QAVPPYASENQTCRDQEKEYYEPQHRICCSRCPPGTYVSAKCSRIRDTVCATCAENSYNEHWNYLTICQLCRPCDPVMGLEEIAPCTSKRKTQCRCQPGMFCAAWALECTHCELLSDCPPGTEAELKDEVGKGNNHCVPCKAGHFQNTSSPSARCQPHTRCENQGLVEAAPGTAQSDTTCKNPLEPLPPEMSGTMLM

Turning to B1, the Kd (usually the equilibrium constant for the complex coming apart) in assay [1] was determined as 0.468 nM. For the same molecule, the figures for the EC50 in [2] and in assay [3] were 0.0644 nM and 0.98 nM, respectively.

On to B2, for which the EC50 (as a rule, the concentration needed to bring the measured effect to its halfway point) in [4] was found to be 1.91 µg/mL; in assay [5], 1.26 µg/mL; in [6], 2.11 µg/mL; in assay [7], 4.61 µg/mL; in [8], 0.922 µg/mL; in assay [9] it was 1.94 µg/mL. The EC50 in assay [10] is around 18100 µg/mL; in assay [11], 16.1 µg/mL.
